This is an account of results in PMC10016618 (Nature cell biology, 2021).

B1: Kif7-DM-GFP (1-543aa) (domain or fragment, human, UniProt Q2M1P5 1-543, looked up)
chain: MGLEAQRLPGAEEAPVRVALRVRPLLPKELLHGHQSCLQVEPGLGRVTLGRDRHFGFHVVLAEDAGQEAVYQACVQPLLEAFFEGFNATVFAYGQTGSGKTYTMGEASVASLLEDEQGIVPRAMAEAFKLIDENDLLDCLVHVSYLEVYKEEFRDLLEVGTASRDIQLREDERGNVVLCGVKEVDVEGLDEVLSLLEMGNAARHTGATHLNHLSSRSHTVFTVTLEQRGRAPSRLPRPAPGQLLVSKFHFVDLAGSERVLKTGSTGERLKESIQINSSLLALGNVISALGDPQRRGSHIPYRDSKITRILKDSLGGNAKTVMIACVSPSSSDFDETLNTLNYASRAQNIRNRATVNWRPEAERPPEETASGARGPPRHRSETRIIHRGRRAPGPATASAAAAMRLGAECARYRACTDAAYSLLRELQAEPGLPGAAARKVRDWLCAVEGERSALSSASGPDSGIESASVEDQAAQGAGGRKEDEGAQQLLTLQNQVARLEEENRDFLAALEDAMEQYKLQSDRLREQQEEMVELRLRLELVRP
B2: Gli2-ZF-SNAP (domain or fragment, human, UniProt P10070 418-604, looked up)
chain: KEDLDRDDCKQEAEVVIYETNCHWEDCTKEYDTQEQLVHHINNEHIHGEKKEFVCRWQACTREQKPFKAQYMLVVHMRRHTGEKPHKCTFEGCSKAYSRLENLKTHLRSHTGEKPYVCEHEGCNKAFSNASDRAKHQNRTHSNEKPYICKIPGCTKRYTDPSSLRKHVKTVHGPDAHVTKKQRNDVH
modifications: Alexa-647 label (TIRFM assays)

Substitutions are numbered along the chain they refer to. Like-named read-outs stand apart in the source and are kept apart here.

In series [1] the target is GDP-taxol stabilized microtubules (bovine tubulin) (bovine) (UniProt Q6B856). Put plainly: co-sedimentation.
Series [2] has the same target. Description: co-sedimentation. This is another data set of the same source.
Series [3] deals with the molecule itself. Put plainly: single molecule fluorescence intensity and step-photobleaching analysis.
In the next series the target is T1, Kif7-DM (1-543aa) (human, UniProt Q2M1P5 1-543).
T1 sequence (looked up): B1 chain
Put plainly: BLI.

For the series “Kif7-DM-GFP (1-543aa)”, the target named is B1. Put plainly: TIRF microscopy, recruitment to immobilised microtubules.
In another series the target is T2, Kif7-DM(E502A)-GFP (human, UniProt Q2M1P5 1-543, E502A).
T2 sequence (looked up): B1 chain with E502A
The series is described as above.

As a reminder, the Kd is the free concentration of one partner at which half of the binding sites on the other are occupied at equilibrium, for simple one-to-one binding. Higher therefore signals weaker binding. The stoichiometry N is a count of units in the complex or per binding partner. Regarding B1, the Kd in series [1] came out at 4.23 µM; in series [2] it was 540 nM. Further, in series [3], the “stoichiometry N” value is 2.

On to B2, for which, in the series with Kif7-DM (1-543aa), the Kd worked out at 99 ± 23 nM. Also, the “fold enrichment of Gli2-ZF on microtubules over no kinesin control” value with Kif7-DM-GFP (1-543aa) was roughly 9 fold. The binding result in the series with Kif7-DM(E502A)-GFP is reported as “binds”.
